Assay: soluble fraction after stress (log2 fold change); higher = more stays soluble; pooled small domains, quantitative proteomics
Conditions: stress: pH 4
Outline: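 Aggregation propensity here comes from the fold change in the soluble amount of each small protein domain after acid stress, measured in pooled custom libraries by high-throughput quantitative proteomics. The acid stress was pH 4. On the log2 scale, higher values mean more of the domain stayed soluble.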

“HMLTDAAAVKRSVRNLVQYGFYEKPFHPEIGSGVRDLLFENMTPFVANNLSKQIEEIITNYEPRA” and “HMLTDMSKIRKVLKLYGKGNSKLFISTYLSLSRNTVKKYISLFEVSGKTIEEILAKSDSELELLFSG” are within 0.2 log units of each other in “soluble fraction (log2)” value: -0.126 for the first, -0.0775 for the second.

First: HMLTEREQDTLNFIRQYIDEQGRSPLVSEIAKGLGIKSQGTTHRYIQALVDAGLLERHVGRTRGLHLT
Second: HMLTGADAEKATAAAQAEFPGGTVLRVETDADGTYEAHVRKADGTEVEVKMDKDFKVTSVEE
The “soluble fraction (log2)” value of the first is lower: -0.352 for the first, -0.0221 for the second.

“HMLTLAVPNSINMRLDKYLSENIDYLSRSKIQGLINDGKVTINGENEKSSYKLNGDESIVIYYEE” and “HMLTPQEIGSRLKLVRQGLQLKQQEVAEIIGTSQLKISKIEQGATVTTPDFLKLLAFYSQSVSLDILF” are within 0.2 log units of each other in “soluble fraction (log2)” value: -0.775 for the first, -0.652 for the second.

Going from “HMLTRQRKQLLEYLSKHTDEQMTARQIADALTAESISISAVYRNLSALEEEGILKRSIRENTREVYYQYIA” to “HMLTSIDQMLKLAMPDSDITVSKMNGLILLTGTVKAPEDAAEAERLVQAFSAPPPGQPPVTVVSRLRTA”, the “soluble fraction (log2)” value rises from -0.231 to 0.22.

First: HMLTTMSSQWKPSLDAIEILEKSGIAYSFIEDAIPEFVLYWRERGISHGAWNTKFVEHIRKQWAKFEAS
Second: HMLTTVAAQRAALHQEEDITKLREIILKLVPFWGLDGGAYADKETSIQLERQYRESFDQAVSAARRSGQA
The “soluble fraction (log2)” value of the first is higher: 0.21 for the first, -0.234 for the second.

Going from “HMLTWNQLGLITKPVVFLDGTGYYARLFEAFEHMISTGFVKENYRAMMNRATSVEEAVRIASSPAPKVD” to “HMLVGGPDTPSKVTVSFDLGSRQAVDELTERAGAAGGRIGDIDDYPFMYQRQFDDPDGYHYSPFWMKP”, the “soluble fraction (log2)” value falls from -0.187 to -0.528.

Compared with “HMLVTQSITVPMAMSGIRLDAALAMLFPDHSRNRLKAWLDDGHILVDGAVWAGKQRLEGNEEITATLPEAK”, “HMLYDNQLPDWAGQMVKNHGLTISPKALVILVDHIGNDLSRIENEIEKLMLNLGTRKSITEDDVEN” is lower in “soluble fraction (log2)” value: -0.189 for the first, -1.34 for the second.

First: HMLYETLKKGDQGTSVKTLQEKLKALGYLTGAADGKYGAGTETAVKSFQKAAGLTETGTADPETLSAVYAA
Second: HMLYITEIQKKIMDAFLVVANESNSGTRITMNEIANKVRMTPQAIYRKHFKSVIEISDTIRD
The “soluble fraction (log2)” value of the first is higher: 0.0393 for the first, -1.17 for the second.

First: HMMEERVIEFANVLRRNGVRVSLAENMDAFRALKSLGISDPLLFRHALRATLIKRGSDIQPFEELFDFFFL
Second: HMNAAFMKAERLLAILNILLTGKRVSSTELAKKLEVSVRTVYRDVEALSEAGFPVYATMGRDGGFGLIEGF
The “soluble fraction (log2)” value of the first is higher: -1.08 for the first, -1.58 for the second.

“HMNADAIIGRMGKVTEPITPDGYGRVEIDGDSWKATAVGGVAIAEGTRVSVVSLDSIIITVKTV” and “HMNADAIVGRTGVVTEAIAADGFGRVQIDGDSWKAKASGNNGIDVGAKVRVLRIDSIILTVEK” are within 0.2 log units of each other in “soluble fraction (log2)” value: -0.117 for the first, 0.059 for the second.

Compared with “HMNAELSTVQAAEVLNVSRPFLIKLLEDGAIPHRKVGKHRRVRMEDVMSYKAAIDTEREAVLDQLAA”, “HMNAISIDEAKKIALAKVSGASDQHIRIEADHDDGRLVYEGEIHYGRVEYEFEIDGSTGAIIEWDADRK” is higher in “soluble fraction (log2)” value: -0.722 for the first, -0.0156 for the second.

First: HMNAKKSTLQLDLLKQLLEGNKISLKDFSLSNEISIRTAQRYIEDLLEIFEKNIVKEGDFYSFIS
Second: HMNAKNPRALAIQYVFKMQMGNFLHAKTDNQQQEQERIMTLFNEENKNTILPRWGKELLSYINRN
The “soluble fraction (log2)” value of the first is lower: -1.34 for the first, -0.208 for the second.

“HMNDENIIIEEIKYFIKSNQIKEQEKLPSERNLSELFTVSRFSLRKALRHLVDTGYLYVKDKSGYYYQGD” and “HMNDLIKMPYLVGQLYDDVASNQEYADFQFKITEGNDPDKQPGEIMKQDPAADIMVKKNAEVELLVNG” are within 0.2 log units of each other in “soluble fraction (log2)” value: 0.00355 for the first, 0.193 for the second.

Going from “HMNDLKEDTITVQSVEYIDSDDGTMVYIKDTNHQVYKQAFKEDESLIRISAGDVLHVKYQPMDNEIHLL” to “HMNDMPELLSIKEASQWATEYLNKNVTTSNIAYLIQYGRIRKIGNNGSTQVLKDDLVKYYKDQK”, the “soluble fraction (log2)” value rises from -2.07 to -0.0394.

First: HMNDMWADITINANGKATLVVHTHEIKYLGLTGHLGKMEINGTAKEPVKDSSGDVVDYYFTFTDLDASMF
Second: HMNDNFTPDDLNRLARIKDLPQAKKYALELISNKSAKPMKPEKVRWFANQLQKKKSVMDITKMMYDLLLA
The “soluble fraction (log2)” value of the first is lower: -0.623 for the first, 0.198 for the second.

“HMNDNTAINEFKKMVFTRMVHLQIDNAELSKLSGVTNSKILALKYGNSNTLKLGDIVKVAKTLNINLNDL” and “HMNDPFVILGVSKDASQSEILEAYKQKRAYYQERVFDEGDEGAQAARMLTQLDDAYQQAMELSHES” are within 0.2 log units of each other in “soluble fraction (log2)” value: 0.094 for the first, 0.17 for the second.

First: HMNDPIESLTPREREVLTLMAEGRTNAAIAAQLVVTEGAVEKHTQHIFAKLGLLPDSAVHRRVKAVLALLS
Second: HMNDPNAPITENQLKAIHVLLDKLKVDDNLKHAYIADVLQLDNEPETLKTLTKAQGSMAIERMQLLKDN
The “soluble fraction (log2)” value of the first is lower: -0.637 for the first, -0.42 for the second.

Going from “HMNDQLIYSDFIRQVQDGQITEVTISGLNIAGTRSDGSVFNTLRPYIEDPKLIDDLLSHNVRIQGAE” to “HMNDRERIGKRIAQLRMEAGISQYKLAELTGLAPGNIARIETGKYSTGIDILSKIGDALGYQLDFI”, the “soluble fraction (log2)” value rises from -0.632 to -0.414.

Going from “HMNDRLAGMEGQRGEAATNFDQGEGKVKVGDTVWLAKQSDSTVIVEGDQIVVTGSENGLLKVRL” to “HMNDTLGVNIKRLRKEKGMTQDEVAKAVYTTRYNILRYESGKMTPSSEVIERLEKALGVPTGSLAQ”, the “soluble fraction (log2)” value rises from -0.453 to -0.0881.

“HMNDTSLIIDNLMLKLGNNIKNFSEIYSLLRKNLAEYGEEFIKSKVDYVLKNFNDNIEENLKKLLTE” and “HMNDVGKVLNQLGERDRMILLLTYWDELPLKEAARILEVSENNAKIILFRARSRFASLWSAGS” are within 0.2 log units of each other in “soluble fraction (log2)” value: -0.601 for the first, -0.794 for the second.

Going from “HMNEAVVVPDVKGLTLDEADEFFKNSKLRYNVVDSVFSKDVAPGAIVELVPVAGSKVKENRIVFVTINAQ” to “HMNEDTEDIKNINSLVNKLTENNFDIIRDSIVKLINKEHLIPYIIETIIEKSILHHRYVHLYVSILKE”, the “soluble fraction (log2)” value rises from -0.517 to -0.119.

“HMNEDYSSMVGKTGFALTILRPAGKIMIEEEVFDAVAINGYISKGQEVEVVRYENAQLYVKVK” and “HMNEFGIPDKKLQDIETRVNSMSLEQLNAARSMLIDEQEALNSSTGSASSGRLKEIAAELSTIQKALIAIA” are within 0.2 log units of each other in “soluble fraction (log2)” value: -0.228 for the first, -0.0513 for the second.

Going from “HMNEFNEVVPDSLEGERLDRLLAFIGNISRSEASNIIKGGEVLINGKVVTRPSFKVTLGNRVEFSIRD” to “HMNEGETLYRLRAGDGRARLDKFLAAALPDISRTRFKGLIESGHVRVGGETITEPAYRVKSEAEVELTVPE”, the “soluble fraction (log2)” value rises from -0.19 to 0.0187.

First: HMNEIALETAIEDVESFIQMQNRNLAFSIDEDTDRAVVTVRDSDSGDVIRQIPSEEVLALAERIQDLQQD
Second: HMNEIDDYDIQLLEYLSKGVSQEAMESVFKQAGITPNSKSTIEKRISKLKIYFKALNTTHLVSITKDLGL
The “soluble fraction (log2)” value of the first is higher: -0.485 for the first, -1.27 for the second.

“HMNEKEAEEAAEAQTEVPDVTGMAPAQAKNMLYQAGLSSEYRGEGETVSRQLPPAGETVNRGTKAVLYL” and “HMNEKGTNSTINEITRISKPGRRVYVGSAEIPKVKSGRGLVLISTSKGVMTGAEAAKAKLGGELLLKV” are within 0.2 log units of each other in “soluble fraction (log2)” value: 0.2 for the first, 0.129 for the second.

First: HMNEKMKEIGLRIKELRELSDISAQGMADHLKIPLETYQEYEDGKKDIPASILFEISQKMEVDMGLLLTGE
Second: HMNELTDKQILLFSNKLAHNIPFSSKYSKPGESYEEFAERLANELIDPQKVKLYKPYLEEVGFK
The “soluble fraction (log2)” value of the first is lower: -0.253 for the first, 0.112 for the second.

“HMNEMIFNQKKIGQFFMNPETNSPMIYPLELGHKMKIIELKNGWYNVTDEKTGLNGWVKEEDFGVTKPLDS” and “HMNENDENLRQQAIDASKEVRRWGEPVTLPPMNAHDRRIIHITLEGESDLQTESTGEGNFKSVVISLK” are within 0.2 log units of each other in “soluble fraction (log2)” value: 0.0629 for the first, 0.0645 for the second.

First: HMNEPSSYGYAISVALDRNGLGTVKGGTLYPLLARLEQAAHVETRWEAGDGGPGRKYYTITDSGRS
Second: HMNERLKQLRLSLNLNQEEFGKWLGISKSGVSDIESGRRKVTEQHIIMLSNHNISEKWLRTGEGEMFV
The “soluble fraction (log2)” value of the first is lower: -0.41 for the first, 0.0158 for the second.

Going from “HMNETNKMPNLVNQTDSSAIAQLNAMELGLKITTKEESSETVLAGYVIRTEPAADTELTKNQAVTVYVS” to “HMNETTVPDVINQNISTGKIIIEDADLEYRIQYIPSEKSSSIGTIINSIPIYGKRVKSGTIVDLKVLG”, the “soluble fraction (log2)” value falls from 0.0693 to -0.34.

Compared with “HMNETVTNQTVLDLLKEGFTSEEIIGAIENSSTRTITYDINFMRQLKAAGADVTLTTYLQKIAKKDM”, “HMNEWSIDINLADEKQWTAKTKLSPAIIQNIIRYKNYLGGFTNLNQIKKVYGFTEANYYLLKPHLQLGK” is higher in “soluble fraction (log2)” value: -0.711 for the first, -0.386 for the second.

“HMNFDLDSFKQRMTLDGLYFGNEKQDVIALNNLSERYQLTWFDVYQLAKETSSNHKILPKRILVKLQQ” and “HMNFEIEVTENGKRIDSYLAEELDLSRSKVQKLIKQELVTVNGKVVSNNYNVKLGDTILVNDD” are within 0.2 log units of each other in “soluble fraction (log2)” value: 0.158 for the first, 0.154 for the second.

Going from “HMNFFQEIGNSILIELNKKNWTQSMFAHKIGVSDEVFKQIVQGKKALNAVEIAKIANTLDVDPEKLLRK” to “HMNFTEAEQRFHFLEDQRQRGVLSLEQYRAELAQLRVTDAWGRLWMLQEQTGQWFVFHEGQWRPSQ”, the “soluble fraction (log2)” value falls from -0.0391 to -0.266.

Compared with “HMNGEDVTDAIRLPQISQYASVVSAYPGVRAFLLEMQRDFARKGSVIMDGRDIGTVVLPEAEVKIFLT”, “HMNGGPHYLRDVRTSLGLSQADLAKAVGTSANMIHYLESGERALTLKWIRRISEALNVSPMRLIN” is lower in “soluble fraction (log2)” value: 0.278 for the first, -0.0552 for the second.

“HMNGLPDLSRYTGVSIVDGLASVGSDSSFAYRAKIAETLGISDYKGSAGQNLEMIRKLGGKV” and “HMNGTGSVYKLSGKRRNPWRAVVTNGWAYNEEKGKLVQNRVTIGYYHTRDEAIQAIANYNSSP” are within 0.2 log units of each other in “soluble fraction (log2)” value: -0.172 for the first, -0.125 for the second.

Going from “HMNGVFIMHTPDGKVLRTEEGEEAVITLFNWSGQLLWSKTSLGQLPLPEGTQGVLQVQYKSGDQHTIKT” to “HMNHAPSLMRKIRRGLKEGRNPDDLLVNAKSISDYYYRSLSFYLLAPHFSSKSKQYKQVISLANS”, the “soluble fraction (log2)” value rises from -0.425 to -0.151.

First: HMNHHTEQQLKALSNKVKDHRMRMRLLAVAHFKAGKNKADVARTLNVSRRMVNEWVANYFKGGVSALES
Second: HMNHLLYPNPANNFIWIKNSTSNTAVIYNLQGVMSKVEVSEEGKIDISRFSPGLYMIKQGERIYKFTIA
The “soluble fraction (log2)” value of the first is higher: -0.047 for the first, -0.358 for the second.

First: HMNHLSYEQRLKIKEMLDGGFKKIDIARALGVHNATIYREIERGSVNGIYNPNKSEEQYRDHLSEK
Second: HMNHYIGVDRAKEIALNHANLSETDVVFTKEKLENDDGGAEYEIEFHSGRTEYDYTIDAASGNIIEYDVDY
The “soluble fraction (log2)” value of the first is higher: 0.0704 for the first, -0.17 for the second.

In the case of “HMNIDGLIGKKALVTADIDNVNSKGQIKINGLEWTARSVDDEPIPMGTEVEITAISGVKAIVRKG”, the “soluble fraction (log2)” value is reported as 0.309.
